In patent US20120165503A1 (Merck Sharp & Dohme, published 2012):
Positions count from the first letter of the chain named. In names and notes the source's numbering stands. Read-outs that look alike come from different tables or passages of the source. *1 amine or outer side, *2 acyl side, *3 side chain or, on linkers, in order; H or OH if unused. Where no end group is shown, it is not given here. Side-chain parts run from the residue outwards. [ ]: non-standard residue; d: D form. The star is where a group is joined. O‑methyl‑L‑homoserine = COCC[C@H](N[*:1])C(=O)[*:2]; γGlu = O=C(O)[C@H](CCC(=O)[*:2])N[*:1]; Palmitoyl = CCCCCCCCCCCCCCCC(=O)*; Nle = CCCC[C@H](N)C(=O)O; Aib = CC(C)(N)C(=O)O

B1: OXM418 (peptide)
peptide: H[dS]QGTFTSDK([γGlu-γGlu-Palmitoyl])SKYLD[Aib]RRAQDFVQWLMNTK[γGlu]-NH2
modifications: N-terminus assumed
SMILES: CCCCCCCCCCCCCCCC(=O)N[C@@H](CCC(=O)N[C@@H](CCC(=O)NCCCC[C@H](NC(=O)[C@H](CC(=O)O)NC(=O)[C@H](CO)NC(=O)[C@@H](NC(=O)[C@H](Cc1ccccc1)NC(=O)[C@@H](NC(=O)CNC(=O)[C@H](CCC(N)=O)NC(=O)[C@@H](CO)NC(=O)[C@@H](N)Cc1c[nH]cn1)[C@@H](C)O)[C@@H](C)O)C(=O)N[C@@H](CO)C(=O)N[C@@H](CCCCN)C(=O)N[C@@H](Cc1ccc(O)cc1)C(=O)N[C@@H](CC(C)C)C(=O)N[C@@H](CC(=O)O)C(=O)NC(C)(C)C(=O)N[C@@H](CCCNC(=N)N)C(=O)N[C@@H](CCCNC(=N)N)C(=O)N[C@@H](C)C(=O)N[C@@H](CCC(N)=O)C(=O)N[C@@H](CC(=O)O)C(=O)N[C@@H](Cc1ccccc1)C(=O)N[C@H](C(=O)N[C@@H](CCC(N)=O)C(=O)N[C@@H](Cc1c[nH]c2ccccc12)C(=O)N[C@@H](CC(C)C)C(=O)N[C@@H](CCSC)C(=O)N[C@@H](CC(N)=O)C(=O)N[C@H](C(=O)N[C@@H](CCCCN)C(=O)N[C@@H](CCC(N)=O)C(=O)O)[C@@H](C)O)C(C)C)C(=O)O)C(=O)O
B2: OXM70 (peptide)
peptide: HXQGTFTSDYSKYLDSRRAQDFVQWLMNTKRNRNNIAC
modifications: Aib at position 2; C4 = Cys(cholest-5-en-3-yl{[(2R)-3-amino-2-(amino)-3-oxopropyl]thio}acetate) at position 38; C-terminal amide
B3: OXM216 (peptide)
peptide: B2 peptide
modifications: Aib at position 2; C7 = Cys(Oxa4-cholesterol) at position 38; C-terminal amide
B4: OXM115 (peptide)
peptide: B2 peptide with X2S
modifications: D-Ser at position 2; C7 = Cys(Oxa4-cholesterol) at position 38; C-terminal amide
B5: OXM177 (peptide)
peptide: B2 peptide with C38K
modifications: Aib at position 2; K(palmitoyl) at position 38; C-terminal amide
B6: OXM-Q3E (peptide)
peptide: HSEGTFTSDYSKYLDSRRAQDFVQWLMNTKRNRNNIA
notes: Native OXM with Glu instead of Gln at position 3; the entry already carries the change; also called OXM8 (Q3E); GLP-1 mimetic
B7: OXM-Q3D (peptide)
peptide: B6 peptide with E3D
B8: OXM212 (peptide)
peptide: H[Aib]QGTFTSDYSKYLDSRRAQDFVQWL[Nle]NTKRNRNNIAC(cholesterol)-NH2
B9: OXM213 (peptide)
peptide: H[Aib]QGTFTSDYSKYLDSRRAQDFVQWL[O‑methyl‑L‑homoserine]NTKRNRNNIAC(cholesterol)-NH2

How the values were obtained:
human glucagon receptor [1] = biological target: T1, human glucagon receptor (human, UniProt P47871 26-477); assay: cell-based or functional assay
human GLP-1 receptor [2] = biological target: T2, human GLP-1 receptor (human, UniProt P43220 24-463); assay: cell-based or functional assay
human glucagon receptor [3] = biological target: T1, human glucagon receptor; assay: cell-based or functional assay; remark: listed apart in the source
human GLP-1 receptor [4] = biological target: T2, human GLP-1 receptor; assay: cell-based or functional assay; remark: listed apart in the source
[5] = biological target: T3, glucagon receptor of wild-type mice (liver, in vivo) (mouse, UniProt Q61606 27-485); assay: in vivo GCGR receptor occupancy, competition assay in wild-type mice, 3 mpk s.c.
T3 construct: whole, on cells; Receptor occupancy measured in vivo in liver; also called GCGR; GGCR

human glucagon receptor [6] = biological target: T1, human glucagon receptor; assay: cell-based or functional assay; remark: listed apart in the source
human GLP-1 receptor [7] = biological target: T2, human GLP-1 receptor; assay: cell-based or functional assay; remark: listed apart in the source
human glucagon receptor [8] = biological target: T1, human glucagon receptor; assay: cell-based or functional assay; remark: listed apart in the source
human GLP-1 receptor [9] = biological target: T2, human GLP-1 receptor; assay: cell-based or functional assay; remark: listed apart in the source
[10] = biological target: T3, glucagon receptor of wild-type mice …; assay: in vivo competition with 125I-glucagon, liver of wild-type mice, s.c. dosing
human GLP-1 receptor [11] = biological target: T2, human GLP-1 receptor; assay: receptor binding affinity (GLP-1R IC50); assay format not described

T1 sequence (P47871 26-477): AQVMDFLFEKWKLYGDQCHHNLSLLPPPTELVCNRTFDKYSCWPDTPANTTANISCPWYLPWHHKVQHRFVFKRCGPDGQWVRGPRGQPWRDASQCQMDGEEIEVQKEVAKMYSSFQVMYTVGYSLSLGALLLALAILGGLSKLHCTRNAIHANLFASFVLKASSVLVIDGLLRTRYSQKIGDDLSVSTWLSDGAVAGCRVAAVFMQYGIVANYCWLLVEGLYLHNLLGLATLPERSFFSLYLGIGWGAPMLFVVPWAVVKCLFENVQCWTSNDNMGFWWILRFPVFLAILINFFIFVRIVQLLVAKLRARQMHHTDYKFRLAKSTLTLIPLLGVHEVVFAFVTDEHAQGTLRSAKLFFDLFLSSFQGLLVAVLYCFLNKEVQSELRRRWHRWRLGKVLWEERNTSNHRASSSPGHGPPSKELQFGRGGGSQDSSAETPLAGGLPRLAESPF
T3 sequence (Q61606 27-485): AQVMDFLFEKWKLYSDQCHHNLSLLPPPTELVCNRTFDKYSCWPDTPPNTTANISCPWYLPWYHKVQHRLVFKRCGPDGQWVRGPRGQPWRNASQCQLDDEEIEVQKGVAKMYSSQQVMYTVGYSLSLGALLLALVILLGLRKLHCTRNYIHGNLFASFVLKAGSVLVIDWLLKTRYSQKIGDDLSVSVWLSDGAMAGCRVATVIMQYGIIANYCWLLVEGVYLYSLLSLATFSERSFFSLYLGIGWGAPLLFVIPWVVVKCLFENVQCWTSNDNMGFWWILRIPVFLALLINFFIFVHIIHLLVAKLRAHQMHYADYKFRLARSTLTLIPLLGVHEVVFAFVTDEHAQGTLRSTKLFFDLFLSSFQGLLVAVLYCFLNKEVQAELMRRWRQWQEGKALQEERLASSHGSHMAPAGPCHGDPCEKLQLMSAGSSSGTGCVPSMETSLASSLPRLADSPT

Binder	% RO @ 3 mpk s.c. [5] [%]	GCGR + 10% plasma (human glucagon receptor [6]) [nM]	GCGR EC50 (human glucagon receptor [6]) [nM]	GLP-1R EC50 (human GLP-1 receptor [7]) [nM]	% Activation of GCGR (human glucagon receptor [6]) [%]	further results
B1						hGCGR + 20% plasma EC50 (human glucagon receptor [1]): 0.3 nM; hGLP-1R + 20% Plasma EC50 (human GLP-1 receptor [2]): 0.3 nM; hGCGR EC50 (human glucagon receptor [3]): 0.002 nM; hGLP-1R EC50 (human GLP-1 receptor [4]): 0.026 nM
B2	~0	169	2.4	0.15		
B3	10	12	0.63	3.1	93	
B4	36	0.64	0.33	0.08	100	
B5	30	3	0.59	0.1	93	GCGR + 10% plasma (fold shift) (human glucagon receptor [6]): 5 fold
B6						% Activation of GCGR (human glucagon receptor [8]): 17%; GCGR EC50 (human glucagon receptor [8]): 1640 nM; GLP-1R EC50 (human GLP-1 receptor [9]): 12.4 nM; binding result [10]: no binding; IC50 (human GLP-1 receptor [11]): 237 nM
B7						% Activation of GCGR (human glucagon receptor [8]): 1%; GCGR EC50 (human glucagon receptor [8]): 3400 nM; GLP-1R EC50 (human GLP-1 receptor [9]): 2.3 nM
B8		1030	11.3	0.6	115	GCGR + 10% plasma (fold shift) (human glucagon receptor [6]): 92 fold
B9		1210	27.6	0.3		
